Source: PMC3821034

Biological target: Phenylalanine hydroxylase from Legionella pneumophila (Legionella pneumophila) (UniProt Q5ZS72)
Assay: crystal structure

With “Phenylalanine hydroxylase from Legionella pneumophila (from UniProt Q5ZS72 1-272) (enzyme)” the stoichiometry N was 2.
